Test system: MS2 coat protein
Test: apparent KD of MS2 coat protein; designed switch direction (-1 OFF switch, 1 ON switch): -1; higher = weaker reporter binding
Summary of the method: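 RNA switches sharing common flanks were transcribed by stalled E. coli RNA polymerase on Illumina chips. A doubling series of SNAP-549-labelled MS2 coat protein, from 0.7 or 1.5 nM to 3 µM, was applied in Tris-HCl pH 7.5 buffer with KCl, MgCl2, BSA, DTT, tRNA and Tween-20. Each step lasted 0.8–1.5 h at the bottom of the series and 10–20 min at the top. Normalised cluster fluorescence was curve-fitted, giving apparent KD as the per-design median over clusters.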

[1] = Eterna round: R95, input ligand: FMN 200 uM
[2] = Eterna round: R95, input ligand: microRNA oligo, concentration not stated
[3] = Eterna round: R95, input ligand: none
[4] = input ligand: microRNA oligo, concentration not stated

Row | Sequence | apparent KD of MS2 coat protein (input ligand: FMN 200 uM) [nM] | apparent KD of MS2 coat protein (input ligand: none) [nM] | apparent KD of MS2 coat protein [1] [nM] | apparent KD of MS2 coat protein [2] [nM] | apparent KD of MS2 coat protein [3] [nM] | apparent KD of MS2 coat protein [4] [nM]
1 | GAGCAGCGAGGAUAUACAGACGGGUCCAGUACGUGUCUUGGACUUGAGGAUCACCCAAGUAGAAGGCGUCUCAG [salish99_ex2_r4_608] (Eterna round: R97, puzzle: Exclusion 2) | 86.8 | 44.3 | – | – | – | –
2 | GUAUGUUAUGAGGAUAUCGGUGAACAUACACAUCGAGAAGGCAUGACAUGAGGAUCACCCAUGUCGAGGAUGAA [Exclusion 6 - B - 18:e] (puzzle: Exclusion 6) | – | – | 47.2 | 18 | 23.7 | –
3 | UUUAAUUUUUUUUUUUUACAAGCUUUUUGCUCGUCUUAUACAUGAGGAUCACCCAUGUAGGUGAAAGAUAAAUUAUC [JMF 4] (puzzle: Sensor v3, turn-off variant 2) | – | – | 31.5 | 77.5 | 33.5 | –
4 | GUAAAGUGAGGAUAUGGUAAAGUAAGUAUGUAGUAAGUAAUCCAGAAGGCACAUGAGGAUCACCCAUGUAAAUG [Mat - Exclusion 4 - D99] (puzzle: Exclusion 4) | – | – | – | 28.8 | – | –
5 | GUAUACAGAGGAUAUACGUGCGGCGUCAAAUGUCCAAGAGUACAUGAGGAUCACCCAUGUAGAAGGUUGAAAGC [Eternabot (L1) Solution 15] (Eterna round: R97, puzzle: Exclusion 2) | 21.7 | 26.6 | – | – | – | –
6 | ACACAACAUGAGGAUCACCCAUGUCAGGAUAUGCAGAACAAGAACAAGACAAGACAGAGCAGAAGGGACAACAC [Ex 1 M5] (puzzle: Exclusion 1) | – | – | – | 32.8 | – | –
7 | AGACCACAUGAGGAUCACCCAUGUCAGGAUAUCGACUGAACAGCUUCGGCUGUUCAGUCGAGAAGGGACAAUUA [Brourdxlusion 8 - Jieux - Exclusion 1] (Eterna round: R97, puzzle: Exclusion 1) | 60 | 52.7 | – | – | – | –
8 | AGUGUGUGGCAGGAUAUUCUAAUCGUGAGGAGGGAAGAAGGGUCUACAUGAGGAUCACCCAUGUAAGCGGUUGA [Ex6 #42] (Eterna round: R97, puzzle: Exclusion 6) | 259 | 140 | – | – | – | –
9 | ACAAGCUUAAAAGGUGAUAACAUGAGGAUCACCCAUGUUCGUCUUAUAAAGAUCCUAUGUCGAAAGACGUAGGAUCA [Sensor 3, v1 - 69] (puzzle: Sensor v3, turn-off variant 1) | – | – | 21.2 | 28 | 22 | –
10 | AGGCGGACAUCUAAUACUCACAUGAGGAUCACCCAUGUUUGACCAAAUAUACAGGCCGGUUUGCUUAGUCUUACUUG [Eternabot (L2) Solution 43] (Eterna round: R97, puzzle: Sensor, turn-off variant 1) | 40.8 | 49.2 | – | – | – | –
11 | UCCAACCCUGUGAGGAUAUCGUCCAUUUUUUGUUCCGAGAAGGCACAUGAGGAUCACCCAUGUUUUUUAUUUUU [JR_BMOE4_Sub078] (puzzle: Brourd's mod of Exclusion 4) | – | – | – | 34.9 | – | –
12 | CUCCGACAUGAGGAUCACCCAUGUGAGGAUAUGUAGCCCAGUUGGACAACUCGAGGUAGCAGAAGGCACAUGCC [Eternabot (L2) Solution 64] (Eterna round: R97, puzzle: Exclusion 1) | 57.6 | 27 | – | – | – | –
13 | CAAAGAACAUGAGGAUCACCCAUGUGAACCUUCGUUCGACCUCAGGAUAUCCGCCACCGUCCGCAGGAGAAGGGAGGGAAAAUA [Isinar] (Eterna round: R96, puzzle: Exclusion NG 3) | 138 | 72.8 | – | – | – | 64.9
14 | ACGCGACAUGAGGAUCACCCAUGUGAGGAUAUGGCCUGUUUGGCGUGUGCUGGCUCUGUCAGAAGGCGCGUGGG [salish99_ex1_r4_040] (Eterna round: R97, puzzle: Exclusion 1) | 141 | 90.4 | – | – | – | –
15 | UGCAUGCUAGGAUAUACGAAACAUUAGGGUUCUUUGUGUGAACAUGAGGAUCACCCAUGUAGAAGGAGCGUGCU [Mod8 of JL-ex2-2.15 mat747 mod] (puzzle: Exclusion 2) | – | – | – | 127 | – | –
16 | CAAAAGGAAGGAUAUGCAUCGGGAGGUGCUCAGCAUCAAAUACAUGAGGAUCACCCAUGUAGAAGGUCUGAAAA [Edbile] (puzzle: Exclusion 2) | – | – | – | 31.5 | – | –
17 | UCCUGCUGGCGAGGAUAUCCUGUGCGGUUCCGGCUCGUGUCUGUUACAUGAGGAUCACCCAUGUGGGAGAAGGUGUCUGUGGCC [Design 98] (Eterna round: R96, puzzle: Exclusion NG 2) | 18.6 | 20.5 | – | – | – | 14.1
18 | AUAAAUGAUGAGGAUAUCACUAGCGAUAGCUAGUGAGAAGGCAUCACAUGAGGAUCACCCAUGUGAUCCAAUAA [Mod6 Ex6/6-A4 by Brourd] (Eterna round: R97, puzzle: Exclusion 6) | 479 | 359 | – | – | – | –
19 | UGUUCGUCAGGAUAUUCUACUUAUUACAUGAGGAUCACCCAUGUGUAUGUACAAGGGUGUGAAGAAGGGACUUGUU [LRO-Excl5-08-mod A17d by Omei] (Eterna round: R97, puzzle: Exclusion 5) | 245 | 885 | – | – | – | –
20 | UAUGGUUAAGUCAGGAUAUACGUGCAGUUUUCUGGGUAGAAGGGACAUGAGGAUCACCCAUGUAUGGUAGUGUU [Ex4 #49] (Eterna round: R97, puzzle: Brourd's mod of Exclusion 4) | 188 | 149 | – | – | – | –
21 | CUCUUGGCAGGAUAUGCAAUUUUAGACAUGAGGAUCACCCAUGUGAUCAUUCCAUAUUAUGCAGAAGGGCCUAAAC [JR_E5_Sub049] (Eterna round: R96, puzzle: Exclusion 5) | 238 | 39.2 | – | – | – | 27.4
22 | ACAUGAGGAUCACCCAUGUCCGUCUGGUCUGUCUCGGCUGUCGAGGAUAUAGCUCGGUAUCCGCGCUAGAAGGCGGGAGUCGGG [Aenatbe mod 95] (Eterna round: R96, puzzle: Exclusion NG 3) | 36.1 | 61.9 | – | – | – | 60.9
23 | GGAGGACGAGCAGGAUAUUUUCACAUGAGGAUCACCCAUGUGUACUCAGGGUAAUCCUCCGCCGAAGAGAAGGGUUCGGAAGAA [Socedi] (Eterna round: R96, puzzle: Exclusion NG 2) | 91 | 57.1 | – | – | – | 23
24 | AGAUGUAGAUACCGAUCCUACAUGAGGAUCACCCAUGUAGCUAGACGUGCGCGCGGCGCUCGUCAGACUACCAGUAG [salish99_TOv1_r3_093] (puzzle: Sensor v3, turn-off variant 1) | – | – | 328 | 248 | 326 | –
25 | GUUAACGUAGGAUAUUAGUACAUGAACAUGAGGAUCACCCAUGUGAGGUAGGUCUAAGAAUAAGAAGGGCGAAGAA [EX5 #27] (Eterna round: R97, puzzle: Exclusion 5) | 108 | 185 | – | – | – | –
26 | AAGUACCGUCACGAUAGUGAUGGUACAACAGGUAGUGAAACAUGAGGAUCACCCAUGUCCUCAAUUGCUCGUCUUAU [Sensor 3 - 84] (puzzle: Sensor v3, turn-off variant 2) | – | – | 773 | 179 | 716 | –

From the supplement of paper PMC9170038
